The values that follow come from FireProtDB (doi:10.1021/bi702473g).

“And” between values parts separate entries of the source, which are not always exact repeats. Equal entries are not always repeated.

First the molecules themselves.
B1: Azurin, P00282 (parent)
chain: MLRKLAAVSLLSLLSAPLLAAECSVDIQGNDQMQFNTNAITVDKSCKQFTVNLSHPGNLPKNVMGHNWVLSTAADMQGVVTDGMASGLDKDYLKPDDSRVIAHTKLIGSGEKDSVTFDVSKLKEGEQYMFFCTFPGHSALMKGTLTLK

Variants of B1 are the subject of one series. The following applies: Pseudomonas aeruginosa (strain ATCC 15692 / DSM 22644 / CIP 104116 / JCM 14847 / LMG 12228 / 1C / PRS 101 / PAO1); pH 7.5; 20 °C; GdnHCl; Fluorescence; Tris 30 mM; reversible: Yes; structure 5AZU; whole UniProt chain shown.
Turning to MLRKLAAVSLLSLLSAPLLAAECSVDIQGNDQMQFNTNAITVDKSCKQFTVNLSHPGNLPKNVMGHNWVLSTAADMQGVVTDGMASGLDKDYLKPDDSRVIAHTKLIGSGEKDSVTFDVSKLKEGEQYMFFSTFPGHSALMKGTLTLK [C132S], the “ddG of mutation (higher = less stable)” value was -1.57 kcal/mol and -2.09 kcal/mol and -0.96 kcal/mol; the denaturant m value is 5.21 kcal/mol/M and 5.82 kcal/mol/M and 4.73 kcal/mol/M; the “denaturant midpoint (higher = more stable)” value was 2.09 M and 1.85 M and 2.17 M; the unfolding free energy was 10.9 kcal/mol and 11.4 kcal/mol and 10.3 kcal/mol.

Still in this series, the particulars now being: Pseudomonas aeruginosa (strain ATCC 15692 / DSM 22644 / CIP 104116 / JCM 14847 / LMG 12228 / 1C / PRS 101 / PAO1); pH 7.5; -15 °C; GdnHCl; Fluorescence; Tris 30 mM; NaCl 5.0 M; reversible: Yes; structure 5AZU; whole UniProt chain shown.
Turning to MLRKLAAVSLLSLLSAPLLAAECSVDIQGNDQMQFNTNAITVDKSCKQFTVNLSHPGNLPKNVMGHNWVLSTAADMQGVVTDGMASGLDKDYLKPDDSRVIAHTKLIGSGEKDSVTFDVSKLKEGEQYMFFSTFPGHSALMKGTLTLK [C132S], the denaturant m value was 6.69 kcal/mol/M and 6.81 kcal/mol/M and 5.02 kcal/mol/M; the “denaturant midpoint (higher = more stable)” value was 1.35 M and 1.38 M and 1.4 M; the unfolding free energy was 9.05 kcal/mol and 9.4 kcal/mol and 7.01 kcal/mol.
